We go through 141 substances from the supplement of paper PMC12042874.

± gives the uncertainty stated by the source.

This data set is described as follows: amyloid nucleation score (Sup35N fusion, yeast selection) (log enrichment); library NNK1; higher = more nucleation; inactive = no reads after selection. An outline of the steps:
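Yeast lacking psi expressed peptides of 20 random codons fused to Sup35N, received 100 μM copper sulfate for 24 hours, and were then grown for 7 days at 30°C on medium lacking adenine and uracil. Illumina sequencing of input and output plasmid inserts provided the reads. Nucleation scores are DiMSum log enrichments of output over input, centred on the mode of non-aggregating sequences. Any sequence with under 100 input reads was excluded.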

The substance KLCWASTRMMWRFYFLDCLD gave an amyloid nucleation score of 0.146 ± 0.39. IFEWFVPLEWSV registered an amyloid nucleation score of 0.012 ± 1.4. For LYNTITRDTTPHGVEN the value was -1.84 ± 2.7; for AGVIDT, 0.171 ± 0.79; for FFSMSSVTNKFSTSCRLNHS, 3.18 ± 0.099. Regarding LRTNTWCYGESSRLWGWCGG, the amyloid nucleation score was found to be 0.067 ± 1.2. The substance RLGLVVSVGRRRLLTAQLGK displayed an amyloid nucleation score of 1.38 ± 0.72.

GRSYFVVGFLSELCEKWLTK: the amyloid nucleation score came to 0.046 ± 1.

As to LKGKTLVMSFFRSAKITVAH, the amyloid nucleation score result was “inactive”. For TSHSGIEFRLEFARSSPPSQ the value was -0.161 ± 0.66; for WARCTGIMFGS, 0.027 ± 0.97.

PIHYEPSKAVYYTQFRGGMG registered an amyloid nucleation score of -0.184 ± 0.42.

Substance SCTPWAVLFMLKSALGSLRG displayed an amyloid nucleation score of 0.708 ± 0.71. As for IHHSLHYPLYSWKSNWRTWG, the amyloid nucleation score was -0.353 ± 0.61. For KAPCDFSGFCRCRVTGPSHC the value was 0.412 ± 0.33; for LFGLYFICSLKAISSYTERL, 0.456 ± 0.23. VQSIRRKVLETRQERVGAQR gave an amyloid nucleation score of 0.04 ± 0.42. Take RCYYLGHVHRICGRWGWGPR: the amyloid nucleation score worked out at 0.37 ± 0.52. In turn, FDLRLRWRVA showed an amyloid nucleation score of 0.295 ± 0.27. With RFTSDAQ, the amyloid nucleation score was -0.524 ± 0.24. For PRELEKFTLQKSGLHPWISL the value was -0.686 ± 1.4. To SRNVVLPL belongs 0.195 ± 0.43; to PMTTWYSVFCAEFL, 0.688 ± 0.32. For IENDGMSRAFC, the amyloid nucleation score amounted to 0.635 ± 0.67. For PWSRDARPSADW the value was “inactive”.

YEPEGIQSIWRCSAVRHAKA had an amyloid nucleation score of -0.286 ± 1.9. For YSVSWQLFGIDVCTFVTVRS the value was 0.367 ± 0.52; for WVCSNNMHMSIANVGLDCNL, 0.178 ± 0.33.

For ATHPDSSMYNRTTSSNFMWF, the amyloid nucleation score was -0.573 ± 0.75. To WVLVSVH belongs 0.211 ± 0.24; to HCRFWRTFDGSNGRNIENSD, 0.986 ± 1.1; to NNSSIVFLW, -0.057 ± 1.4.

FVGIQHRMSYWLCGRHAIVI displayed an amyloid nucleation score of 0.965 ± 0.71. In the case of CQLNTASVSNNGGRVLGMYR, the amyloid nucleation score is 0.529 ± 0.79. To WHRGYGMLTRLRWRPDTVLF belongs -0.052 ± 1.2. For YSFSISVYLLGLSCCCWMGE the value was 6.08 ± 0.064; for YDRVYLNQFVRTESVHFFCL, 6.341 ± 0.056. In the case of IKCPRLK, the amyloid nucleation score was -0.466 ± 0.66. In the case of VNTMPILFFMPCVMKLSV, the amyloid nucleation score turned out to be 1.53 ± 0.57. To VTYVMCFAMEMMVGRCRWGG belongs -0.029 ± 1.4. For SSISV the value was 2.35 ± 0.53; for CKQRKCLGRIYVCEHISQSL, 0.461 ± 0.67; for VKLTNLGFRGKFDVVDCHWI, -0.546 ± 0.34.

Take DLEPWWACLAKGSSGLISYV: the amyloid nucleation score stood at 0.396 ± 0.38. To VRARVLSKTIMMTTYERHLV belongs -0.691 ± 1.7; to KELCGLRGYTFYEQF, 0.588 ± 0.74. KLKINCMYN had an amyloid nucleation score of 2.03 ± 0.45. To YYKYKLLLIKLVLGGAGRPV belongs -0.054 ± 0.56; to KLQMGFIKMFAGQECFDVHA, “inactive”. To FWNFRVIC belongs 0.259 ± 1.4. To GHSRRLYCGLEAGARCGFSR belongs -0.455 ± 1.5; to VERGY, 1.03 ± 0.61; to LSSSWLNKKLH, -0.647 ± 0.9. LVIALSQTDAYGELVSRNMC displayed an amyloid nucleation score of 1.06 ± 0.97. With HVQLELTSCKEGGGCRS, the amyloid nucleation score came out at 0.379 ± 0.78. For WKQLTCWSEILDTIDSL the value was 0.901 ± 0.79; for DGRRTDWVLCNGARIRTCYD, -0.316 ± 0.44; for DRSTIWSTHNSTYVVYYLVV, 5.18 ± 0.063. Consider VITVRLFILW, for which the amyloid nucleation score was -0.213 ± 0.43.

Consider KLSVGYRFWVLDSDFIVDDY, for which the amyloid nucleation score worked out at 0.16 ± 0.23. As to NTVFL, the amyloid nucleation score was determined as 0.549 ± 0.39. With NLASNVRESVGSGIYLMNIS, the amyloid nucleation score came out at 1.97 ± 0.6.

Substance TLSPTAGPAVVALILYGSLT had an amyloid nucleation score of 1.17 ± 0.65. Substance FFLMQYILYYKKQSDMFVSL displayed an amyloid nucleation score of -0.912 ± 1.7. To ASVVQVTGRGSVGMVFPCCS belongs -0.558 ± 0.56. As to FGANHCKRSNGK, the amyloid nucleation score turned out to be 0.233 ± 0.22. For MVDFNSRSKYSVYLSHRGKF the value was 1.7 ± 0.11; for VRGLGGW, -0.134 ± 0.97; for ESVDGTSHAVGIMNGRLKID, 1.93 ± 0.1. Substance GFNDGVVR had an amyloid nucleation score of 0.874 ± 0.55. For PFLQQNKIFNGLYEMTNWVA the value was “inactive”; for CIFPRCVYLYHSVWVDVVGC, -0.097 ± 0.61; for LDTYRVNWMMRLATYNMMVM, 0.312 ± 0.4.

Substance GSCDYRFYNQLGEWNGYRMA returned an amyloid nucleation score of -0.348 ± 0.49. In turn, CCLEWRWLRMEDDPVNGEDV showed an amyloid nucleation score of -0.073 ± 0.43.

LGRHLMILTYQYEEDFPKYR: the amyloid nucleation score was 0.938 ± 0.16. Regarding FYKTL, the amyloid nucleation score was -1.19 ± 1.2.

For the substance EAGHSIFNGNWRGID, the amyloid nucleation score was -0.536 ± 1.2.

DKTKLLLTLRNWLSP registered an amyloid nucleation score of 0.177 ± 0.56. For GLYTLSHHGCNAQGWVRDGS the value was 0.324 ± 0.45; for FIIISACSWLLSNWKTSGST, 6.974 ± 0.056. To ILCCLMSFWDVRKFFFNQKA belongs -0.722 ± 0.41; to WRLTSS, -0.809 ± 0.45; to SADPFVFVALQWNHGVGSWR, 4.06 ± 0.069. The substance IACFFQT showed an amyloid nucleation score of 1.66 ± 0.21. For VECLAAVNYGEVHDPGVMDR, the amyloid nucleation score worked out at 0.417 ± 0.71. The substance IYIGLLYVLCIGLASMCLTS returned an amyloid nucleation score of 0.199 ± 0.84. With TGATATYKFFIFFIL, the amyloid nucleation score was found to be 1.28 ± 0.22. As to VILVFRVDNCTERKAN, the amyloid nucleation score is -0.097 ± 0.5. LNCPFYIFFLLHTVSA came in with an amyloid nucleation score of 6.608 ± 0.065.

With VWLRNTKEMCFV, the amyloid nucleation score is 1.64 ± 0.11. Substance WQQGLVCQI had an amyloid nucleation score of 0.241 ± 0.37. For LASGNILAICWTRSEGSDTL the value was -0.313 ± 1.1; for IMRYLGVKKVE, -0.245 ± 0.4. SIQPIW had an amyloid nucleation score of 0.952 ± 0.5. To SKFVT belongs 1.2 ± 0.9.

Regarding SFAADLFPRLVKACYSGILM, the amyloid nucleation score is -0.413 ± 1.5.

Regarding GLTWKTFPSCPMSENNCIRH, the amyloid nucleation score is 0.133 ± 0.79. The substance GVKTAYGNHAMWRDAVSRRG displayed an amyloid nucleation score of 0.15 ± 0.57. For MRLWLIWYISVMLTQNPRLW the value was 1.22 ± 0.46; for CNDFCCT, “inactive”; for MYLITGKIARNAKTDSPGSN, -0.52 ± 0.68. To NSYFWSGEIIIEYQRP belongs -1.23 ± 0.65; to LMYSNRYF, 4.1 ± 0.079.

Take NTLTMIHLIVLTELSLFK: the amyloid nucleation score was found to be 0.297 ± 0.26.

With SLNFTDHIYYMDGLLIAVVE, the amyloid nucleation score came out at 0.358 ± 0.32. For GERGQFTILISYMALRDRLM the value was 2.45 ± 0.13.

As for KSVLQFETMGFVDLYFSFNL, the amyloid nucleation score was 5.49 ± 0.091. In turn, QMTCSD came in with an amyloid nucleation score of 1.6 ± 0.8. For ACLATNCVSFANFASCCWGW the value was 7.154 ± 0.059. RPHSGVIDDL gave an amyloid nucleation score of 0.349 ± 0.51. In the case of DVFIGMMLRACNVLHSGWFS, the amyloid nucleation score stood at 0.18 ± 0.23. To MPDFSWA belongs -0.115 ± 1.2; to TSHPFLLQFMDDPFELSLAQ, -0.714 ± 0.48; to ASFEKFNNVTLGCSTDSE, 0.666 ± 0.48. For MKSCASDPVCCPQTTRSTSL the value was 0.742 ± 0.49. For YNELKFRGYYNRCLECGFVR the value was 0.495 ± 0.91; for TSHPGRCRGYASRASSEVFR, -0.038 ± 0.43; for FLKGYHCVNDDSGNFFIVYI, 2.02 ± 0.11. Consider SVVLQTHFAFSSFELKSKVA, for which the amyloid nucleation score was -0.54 ± 0.39. As for HSKGYMARHDRAYGDSERVV, the amyloid nucleation score was determined as 0.303 ± 0.77. As for CVRRLRVLCTFLLVTLLYCI, the amyloid nucleation score was 1.67 ± 0.29.

For VLMRSEMESRFNEGRSTQGC, the amyloid nucleation score worked out at 0.361 ± 0.3.

For the substance VAFVLLTQVGGWRLGIWRRK, the amyloid nucleation score was -1.09 ± 0.66. To ADVEVC belongs -0.005 ± 0.56. As for FWSYSMP, the amyloid nucleation score entry is “inactive”. Take GRMAMWYGTPKGGCCHKSLY: the amyloid nucleation score entry is “inactive”.

As to CRDAILIEVGNYRHLVLGPV, the amyloid nucleation score is 0.677 ± 0.52. TLITWTLVSVGIWTMQS showed an amyloid nucleation score of 1.56 ± 0.53.

The substance MKVRQDRKPYWVAESAMCVC registered an amyloid nucleation score of -0.261 ± 0.59. VSTSNSYDSSQHDLDFRQSG showed an amyloid nucleation score of -0.162 ± 0.63.

FPQLGLG: the amyloid nucleation score entry is “inactive”. For the substance CELPTRLF, the amyloid nucleation score is -0.143 ± 0.33. In the case of ILKSSGICFDGLPTKFNL, the amyloid nucleation score is 0.127 ± 0.25. For MICMD the value was -0.27 ± 0.3; for TLRLSFCRYMAFWHCNRSMA, -1.14 ± 1.1. Turning to CLFNQKGMFTSGCKVYLTLV, the amyloid nucleation score is -0.152 ± 0.27.

In the case of SVGGVAGEF, the amyloid nucleation score is -0.087 ± 0.96.

On to EDTWVLLSHYHFNSMLSLLM, for which the amyloid nucleation score was 0.161 ± 0.26. To FPNLHLTELCLGRIYVRACY belongs “inactive”; to TDLFYMMCSRRQTYVCNLVR, 0.456 ± 0.43.
